Measured values reported in patent publication US20160222105A1 (MacroGenics, published 2016).

Assays:
[1] = target: T1, human gpA33 (human, UniProt Q99795 22-235, limits assumed); assay: kinetics of binding to gpA33; method not stated
T1 construct: There it is printed only as gpA33; also called A33 antigen
T1 sequence (looked up): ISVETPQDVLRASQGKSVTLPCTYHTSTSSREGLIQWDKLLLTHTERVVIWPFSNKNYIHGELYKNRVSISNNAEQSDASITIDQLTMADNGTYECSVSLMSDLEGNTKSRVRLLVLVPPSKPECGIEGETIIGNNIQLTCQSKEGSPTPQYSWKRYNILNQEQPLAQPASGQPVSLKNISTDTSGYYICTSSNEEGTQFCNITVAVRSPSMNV

[2] = target: T2, soluble human gpA33 with 6His (human, UniProt Q99795 22-235); assay: SPR (BIAcore 3000), captured gpA33-His, diabody as analyte, 1:1 Langmuir global fit
T2 construct: range 1-235; Expressed in CHO-S cells; The stated range starts at residue 1 and so includes the signal peptide; also called hgpA33-His
T2 sequence: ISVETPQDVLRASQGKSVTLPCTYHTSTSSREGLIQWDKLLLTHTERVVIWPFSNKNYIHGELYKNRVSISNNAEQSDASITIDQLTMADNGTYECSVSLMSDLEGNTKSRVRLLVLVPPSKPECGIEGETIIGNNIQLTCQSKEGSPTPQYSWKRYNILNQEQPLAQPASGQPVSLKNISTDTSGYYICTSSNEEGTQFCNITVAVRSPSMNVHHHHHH

[3] = target: T3, soluble cynomolgus monkey gpA33 with 6His (cynomolgus monkey, UniProt G7NU40 17-329); assay: as above
T3 construct: range 1-314; The range 1-314 is as printed; also called cynogpA33-His
T3 sequence: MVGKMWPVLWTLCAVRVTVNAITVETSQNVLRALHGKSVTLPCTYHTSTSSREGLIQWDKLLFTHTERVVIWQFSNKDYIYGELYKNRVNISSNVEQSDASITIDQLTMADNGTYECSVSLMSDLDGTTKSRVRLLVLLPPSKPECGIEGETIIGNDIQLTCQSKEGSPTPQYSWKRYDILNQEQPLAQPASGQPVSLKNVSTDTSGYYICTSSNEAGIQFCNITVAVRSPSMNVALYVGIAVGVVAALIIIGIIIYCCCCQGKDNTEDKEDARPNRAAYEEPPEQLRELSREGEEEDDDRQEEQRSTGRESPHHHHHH

[4] = target: T4, soluble human CD3ε/CD3δ heterodimer (human); assay: SPR (BIAcore 3000), CD3 immobilized on CM5 chip, diabody as analyte, 1:1 Langmuir global fit
T4 construct: Co-expressed in CHO-S cells; also called hCD3ε/δ
T4 chain 1: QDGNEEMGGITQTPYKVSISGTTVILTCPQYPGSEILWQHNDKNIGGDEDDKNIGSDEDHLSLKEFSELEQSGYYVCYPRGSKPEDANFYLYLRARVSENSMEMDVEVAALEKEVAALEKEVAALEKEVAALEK
T4 chain 2: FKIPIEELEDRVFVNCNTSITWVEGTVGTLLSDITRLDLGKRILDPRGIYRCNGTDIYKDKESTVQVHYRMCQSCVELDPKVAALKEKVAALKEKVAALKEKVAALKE
Method: (§1) gpA33×CD3 bi-specific Fc diabody (DART-2 w/Fc Version 1) binding to soluble versions of human and cynomolgus monkey CD3 receptor was analyzed by SPR on a BIAcore 3000 biosensor (GE, Healthcare). Receptors were immobilized on the CM5 sensor chip according to the procedure recommended by the manufacturer. Briefly, the carboxyl groups on the sensor chip surface were activated with an injection of a solution containing 0.2M N-ethyl-N-(3dietylamino-propyl) carbodiimide and 0.05M N-hydroxy-succinimide. Soluble CD3 receptor (1 μg/ml) was then injected over the activated CM5 surface in 10 mM sodium-acetate, pH 5.0, at flow rate 5 μL/min, followed by 1 M ethanolamine for deactivation.
(§2) Binding experiments were performed in HBS-EP buffer, which contains 10 mM HEPES, pH 7.4, 150 mM NaCl, 3 mM EDTA and 0.005% P20 surfactant. Binding of DART-2 w/Fc Version 1 was analyzed (in duplicate) at concentrations of 0, 6.25, 12.5, 25, 50 and 100 nM, injected for 120 sec at a flow rate of 30 μL/min.
(§3) Regeneration of the immobilized receptor surfaces was performed by pulse injection of 10 mM glycine, pH 1.5. Reference curves were obtained by injection of each dilution of DART-2 w/Fc over the treated surface with no immobilized protein. Binding curves at zero concentration were subtracted as a blank. KD values were determined by a global fit of binding curves to the Langmuir 1:1 binding model (BIAevaluation™ software v4.1).

[5] = target: T5, soluble cynomolgus monkey CD3ε/CD3δ heterodimer (cynomolgus monkey); assay: as above
T5 construct: Co-expressed in CHO-S cells; also called cynoCD3ε/δ
T5 chain 1: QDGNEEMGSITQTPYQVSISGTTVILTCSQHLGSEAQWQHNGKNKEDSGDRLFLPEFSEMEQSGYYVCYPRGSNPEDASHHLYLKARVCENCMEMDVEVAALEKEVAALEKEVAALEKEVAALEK
T5 chain 2: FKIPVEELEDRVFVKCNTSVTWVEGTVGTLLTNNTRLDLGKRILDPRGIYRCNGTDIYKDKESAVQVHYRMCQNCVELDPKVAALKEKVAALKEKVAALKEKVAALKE
Method: as §1, §2, §3

[6] = target: CD3 of cynomolgus monkey T cells (cynomolgus monkey, UniProt Q95LI5 22-198; Q95LI8 22-171); assay: cell-based or functional assay
[7] = target: T6, gpA33 on human cancer cells (human, UniProt Q99795 22-319); assay: cell-based or functional assay
T6 sequence (looked up): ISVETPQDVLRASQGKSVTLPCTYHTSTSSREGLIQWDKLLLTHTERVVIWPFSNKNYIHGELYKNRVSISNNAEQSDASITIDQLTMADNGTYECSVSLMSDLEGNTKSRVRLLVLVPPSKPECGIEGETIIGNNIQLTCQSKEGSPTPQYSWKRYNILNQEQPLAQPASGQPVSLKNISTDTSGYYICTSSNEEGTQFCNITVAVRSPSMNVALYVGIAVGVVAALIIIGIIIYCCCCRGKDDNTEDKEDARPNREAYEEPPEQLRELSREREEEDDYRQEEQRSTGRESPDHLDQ

Chain of CD3 of cynomolgus monkey T cells (Q95LI5 22-198 limits assumed, chain 1 of 2): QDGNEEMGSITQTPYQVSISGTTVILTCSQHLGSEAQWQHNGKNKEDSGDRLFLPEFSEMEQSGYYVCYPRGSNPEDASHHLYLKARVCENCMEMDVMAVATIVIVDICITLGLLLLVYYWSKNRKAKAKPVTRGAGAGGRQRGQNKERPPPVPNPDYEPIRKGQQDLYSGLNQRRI
Chain of CD3 of cynomolgus monkey T cells (Q95LI8 22-171 limits assumed, chain 2 of 2): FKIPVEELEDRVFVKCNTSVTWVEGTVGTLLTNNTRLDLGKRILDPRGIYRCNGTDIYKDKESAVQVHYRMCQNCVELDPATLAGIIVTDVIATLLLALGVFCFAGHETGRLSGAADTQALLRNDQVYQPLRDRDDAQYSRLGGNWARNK

B1: Humanized mAb 1 (antibody, V domains shown)
VH: QVQLVQSGAEVKKPGASVKVSCKASGYTFTGSWMNWVRQAPGQGLEWIGRIYPGDGETNYNGKFKDRVTITADKSTSTAYMELSSLRSEDTAVYYCARIYGNNVYFDVWGQGTTVTVSS
VL: DIQLTQSPSFLSASVGDRVTITCSARSSISFMYWYQQKPGKAPKLLIYDTSNLASGVPSRFSGSGSGTEFTLTISSLEAEDAATYYCQQWSSYPLTFGQGTKLEIK
notes: also called humanized anti-human gpA33 antibody
Work on B1 yielded a Kd [1] of 3.4 nM.

B2: gpA33 × CD3 bi-specific monovalent diabody having an IgG Fc Domain version 1 (DART-2 w/Fc Version 1) (bispecific antibody)
chain 1: DIQLTQSPSFLSASVGDRVTITCSARSSISFMYWYQQKPGKAPKLLIYDTSNLASGVPSRFSGSGSGTEFTLTISSLEAEDAATYYCQQWSSYPLTFGQGTKLEIKGGGSGGGGEVQLVESGGGLVQPGGSLRLSCAASGFTFSTYAMNWVRQAPGKGLEWVGRIRSKYNNYATYYADSVKDRFTISRDDSKNSLYLQMNSLKTEDTAVYYCVRHGNFGNSYVSWFAYWGQGTLVTVSSGGCGGGEVAALEKEVAALEKEVAALEKEVAALEKGGGDKTHTCPPCPAPEAAGGPSVFLFPPKPKDTLMISRTPEVTCVVVDVSHEDPEVKFNWYVDGVEVHNAKTKPREEQYNSTYRVVSVLTVLHQDWLNGKEYKCKVSNKALPAPIEKTISKAKGQPREPQVYTLPPSREEMTKNQVSLWCLVKGFYPSDIAVEWESNGQPENNYKTTPPVLDSDGSFFLYSKLTVDKSRWQQGNVFSCSVMHEALHNHYTQKSLSLSPGK
chain 2: QAVVTQEPSLTVSPGGTVTLTCRSSTGAVTTSNYANWVQQKPGQAPRGLIGGTNKRAPWTPARFSGSLLGGKAALTITGAQAEDEADYYCALWYSNLWVFGGGTKLTVLGGGGSGGGGQVQLVQSGAEVKKPGASVKVSCKASGYTFTGSWMNWVRQAPGQGLEWIGRIYPGDGETNYNGKFKDRVTITADKSTSTAYMELSSLRSEDTAVYYCARIYGNNVYFDVWGQGTTVTVSSGGCGGGKVAALKEKVAALKEKVAALKEKVAALKE
chain 3: not shown
notes: also called DART-2 with Fc
B2 gave a Kd [2] of 2.2 nM, a koff [2] of 0.0009 s⁻¹ and a kon [2] of 420000 M⁻¹ s⁻¹. For the same binder, the Kd [3] was 12 nM, the koff [3] was 0.0028 s⁻¹ and the kon [3] was 230000 M⁻¹ s⁻¹. It also gave a Kd [4] of 23 nM, a koff [4] of 0.0035 s⁻¹ and a kon [4] of 150000 M⁻¹ s⁻¹. For the same binder, the Kd [5] was 26 nM, the koff [5] was 0.0034 s⁻¹ and the kon [5] was 130000 M⁻¹ s⁻¹.

B3: Murine mAb 1 (antibody, V domains shown)
VH: QVQLQQSGPELVKPGASVKISCKASGYTFSGSWMNWVKQRPGQGLEWIGRIYPGDGETNYNGKFKDKATLTADKSSTTAYMELSSLTSVDSAVYFCARIYGNNVYFDVWGAGTTVTVSS
VL: QIVLTQSPAIMSASPGERVTMTCSARSSISFMYWYQQKPGSSPRLLIYDTSNLASGVPVRFSGSGSGTSYSLTISRMEAEDAATYYCQQWSSYPLTFGSGTKLELK
notes: also called original murine anti-human gpA33 monoclonal antibody
Work on B3 yielded a Kd [1] of 2.3 nM.

B4: Chimeric mAb 1 (antibody, V domains shown)
VH: QVQLQQSGPELVKPGASVKISCKASGYTFSGSWMNWVKQRPGQGLEWIGRIYPGDGETNYNGKFKDKATLTADKSSTTAYMELSSLTSVDSAVYFCARIYGNNVYFDVWGAGTTVTVSS
VL: QIVLTQSPAIMSASPGERVTMTCSARSSISFMYWYQQKPGSSPRLLIYDTSNLASGVPVRFSGSGSGTSYSLTISRMEAEDAATYYCQQWSSYPLTFGSGTKLELK
notes: also called chimericized anti-human gpA33 antibody
Binder B4 has a Kd [1] of 2.4 nM.

B5: gpA33 × CD3 bi-specific monovalent diabody (DART-2) (bispecific antibody)
chain 1: QAVVTQEPSLTVSPGGTVTLTCRSSTGAVTTSNYANWVQQKPGQAPRGLIGGTNKRAPWTPARFSGSLLGGKAALTITGAQAEDEADYYCALWYSNLWVFGGGTKLTVLGGGGSGGGGQVQLVQSGAEVKKPGASVKVSCKASGYTFTGSWMNWVRQAPGQGLEWIGRIYPGDGETNYNGKFKDRVTITADKSTSTAYMELSSLRSEDTAVYYCARIYGNNVYFDVWGQGTTVTVSSGGCGGGEVAALEKEVAALEKEVAALEKEVAALEK
chain 2: DIQLTQSPSFLSASVGDRVTITCSARSSISFMYWYQQKPGKAPKLLIYDTSNLASGVPSRFSGSGSGTEFTLTISSLEAEDAATYYCQQWSSYPLTFGQGTKLEIKGGGSGGGGEVQLVESGGGLVQPGGSLRLSCAASGFTFSTYAMNWVRQAPGKGLEWVGRIRSKYNNYATYYADSVKDRFTISRDDSKNSLYLQMNSLKTEDTAVYYCVRHGNFGNSYVSWFAYWGQGTLVTVSSGGCGGGKVAALKEKVAALKEKVAALKEKVAALKE
In the case of B5, the “EC50 - CTL Activity, Colo205 Target Cells, LDH Assay, Cyno PBMC” value [6] is reported as 3.81 ng/mL, the “EC50 - CTL Activity, Colo205 Target Cells, Luciferase Assay, Cyno PBMC” value [6] is reported as 1.55 ng/mL and the “EC50 - CTL Activity, Colo205 Target Cells, LDH Assay, Human PBMC” value [7] is reported as 4.09 ng/mL. The “EC50 - CTL Activity, Colo205 Target Cells, Luciferase Assay, Human PBMC” value [7] was 2.73 ng/mL.

B6: gpA33 × CD3 bi-specific monovalent diabody having an Albumin-Binding Domain (DART-2 w/ABD) (bispecific antibody)
chain 1: QAVVTQEPSLTVSPGGTVTLTCRSSTGAVTTSNYANWVQQKPGQAPRGLIGGTNKRAPWTPARFSGSLLGGKAALTITGAQAEDEADYYCALWYSNLWVFGGGTKLTVLGGGGSGGGGQVQLVQSGAEVKKPGASVKVSCKASGYTFTGSWMNWVRQAPGQGLEWIGRIYPGDGETNYNGKFKDRVTITADKSTSTAYMELSSLRSEDTAVYYCARIYGNNVYFDVWGQGTTVTVSSGGCGGGEVAALEKEVAALEKEVAALEKEVAALEKGGGSLAQAKEAAIRELDKYGVSDYYKNLIDNAKSAEGVKALIDEILAALP
chain 2: DIQLTQSPSFLSASVGDRVTITCSARSSISFMYWYQQKPGKAPKLLIYDTSNLASGVPSRFSGSGSGTEFTLTISSLEAEDAATYYCQQWSSYPLTFGQGTKLEIKGGGSGGGGEVQLVESGGGLVQPGGSLRLSCAASGFTFSTYAMNWVRQAPGKGLEWVGRIRSKYNNYATYYADSVKDRFTISRDDSKNSLYLQMNSLKTEDTAVYYCVRHGNFGNSYVSWFAYWGQGTLVTVSSGGCGGGKVAALKEKVAALKEKVAALKEKVAALKE
In the case of B6, the “EC50 - CTL Activity, Colo205 Target Cells, LDH Assay, Cyno PBMC” value [6] is reported as 4.63 ng/mL, the “EC50 - CTL Activity, Colo205 Target Cells, Luciferase Assay, Cyno PBMC” value [6] is reported as 1.63 ng/mL and the “EC50 - CTL Activity, Colo205 Target Cells, LDH Assay, Human PBMC” value [7] is reported as 5.52 ng/mL. For the same binder, the “EC50 - CTL Activity, Colo205 Target Cells, Luciferase Assay, Human PBMC” value [7] was 3.07 ng/mL.
